Laboratory results from paper PMC5371411.

Target: His-EspC (enteropathogenic Escherichia coli (EPEC)) (UniProt Q9EZE7)
Test: SPR; His-EspC coupled by its His tag and EDC-NHS on a nickel-nitrilotriacetic acid sensor slide; His-EspA or His-EspA/His-EspD perfused in PBST at 50 µl/min; Reichert SR7500DC

Which Kd does the source give for “His-EspA/His-EspD complex (from UniProt Q47184 1-192)” here?
The Kd was 24.8 nM.
